The nature of data set [1]: Kinetic analysis of alcohol dehydrogenase and mutants (NADPH oxidation, 340 nm, double reciprocal curve). The class given is biochemical. To be noted: substrate CPMK. As for the experimental part: Adopting a total reaction system of 200 μL, including: 1.0 mM NADPH, 1.0 mM substrate CPMK and sodium phosphate buffer (PBS, 100 mM, pH 7.0), fully and evenly mixing, maintaining at 30° C. for 2 min, adding an appropriate amount of enzyme solution, and detecting the change in light absorption at 340 nm.
The enzyme activity was calculated by the following formula: Enzyme activity (U)=EW×V×10^3/(6220×I);
in the formula, EW is the change in absorbance at 340 nm in 1 min; V is the volume of a reaction solution in mL; 6220 is the molar extinction coefficient of NADPH in L/mol·cm); and 1 is the optical path distance in cm. One activity unit (U) corresponds to the amount of enzyme required to catalyze the oxidation of 1 μmol NADPH per minute under the above conditions.
A column used for purification was a nickel affinity column HisTrap FF crude, and purification was achieved through affinity chromatography using a histidine tag on recombinant protein. The nickel column was equilibrated with a solution A first, a crude enzyme solution was loaded, a penetrating peak was further eluted off using the solution A, and after equilibrium, a solution B (20 mM sodium phosphate, 500 mM NaCl, and 1000 mM imidazole, pH 7.4) was used for gradient elution to elute off the recombinant protein bound to the nickel column, so as to obtain the recombinant alcohol dehydrogenase mutant. The purified protein was subjected to activity measurement (CPMK as substrate, and NADPH as coenzyme) and SDS-PAGE analysis. […] The purified alcohol dehydrogenase protein was then replaced into a Tris-HCl (100 mM, pH 7.0) buffer using a Hi Trap Desalting column (GE Healthcare).
The activity of KpADH at different substrate concentrations and coenzyme concentrations was determined, and a double reciprocal curve was made based on the reciprocal of activity and substrate concentration to calculate kinetic parameters.

The nature of data set [2]: Stereoselectivity (ee) of CPMK reduction, chiral liquid chromatography. The class given is biochemical. To be noted: product configuration in brackets. As for the experimental part: In an embodiment of the present disclosure, a chromatographic analysis method is as follows: 100 μL of reactant liquid is taken, 500 μL of ethyl acetate is added, shaking is performed for 1-2 min, centrifugation is performed at 12,000 rpm for 2-5 min, supernatant liquid is taken into a centrifuge tube, after an organic phase naturally volatilizes completely, 500 μL of chromatographically pure ethanol is added, and chiral liquid chromatography and gas chromatography are performed to analyze the transformation rate and the ee value.
Method for determining optical purity ee:
As: molar concentration of (S)-CPMA obtained by liquid chromatography; and AR: molar concentration of (R)-CPMA obtained by liquid chromatography.

B1: E214S: serine for glutamate at position 214 of the alcohol dehydrogenase of SEQ ID No. 2 (protein)
chain: MSVLISGASGYIAKHIVRVLLEQNYKVIGTVRSQDKADKLLKQYNNPNLSYEIVPEIANLDAFDDIFKKHGKEIKYVIHAASPVNFGAKDLEKDLVIPAINGTKNMFEAIKKYAPDTVERVVMTASYASIMTPHRQNDPTLTLDEETWNPVTEENAYENVFTAYCASKTFAEKEAWKFVKENSDAVKFKLTTIHPSFVFGPQNFDEDVTKKLNSTCEIINGLLHAPFDTKVEKTHFSQFIDVRDVAKTHVLGFQKDELINQRLLLCNGAFSQQDIVNVFNEDFPELKGQFPPEDKDTDLNKGVTGCKIDNEKTKKLLAFEFTPFHKTIHDTVYQILHKEGRV
modifications: Protein translated from synthetic DNA
Consider B1, for which, in data set [1], the Kcat was 11.86 ± 0.48 s⁻¹; the Km (usually the substrate concentration at which the rate is half of its maximum) stood at 540 ± 70 µM; the Vmax (as a rule, the rate approached at saturating substrate) turned out to be 17.79 ± 0.88 µM/min/mg. Also, in data set [2], the ee % is recorded as 14.2 (R) %.

B2: E214R: arginine for glutamate at position 214 of the alcohol dehydrogenase of SEQ ID No. 2 (protein)
chain: MSVLISGASGYIAKHIVRVLLEQNYKVIGTVRSQDKADKLLKQYNNPNLSYEIVPEIANLDAFDDIFKKHGKEIKYVIHAASPVNFGAKDLEKDLVIPAINGTKNMFEAIKKYAPDTVERVVMTASYASIMTPHRQNDPTLTLDEETWNPVTEENAYENVFTAYCASKTFAEKEAWKFVKENSDAVKFKLTTIHPSFVFGPQNFDEDVTKKLNRTCEIINGLLHAPFDTKVEKTHFSQFIDVRDVAKTHVLGFQKDELINQRLLLCNGAFSQQDIVNVFNEDFPELKGQFPPEDKDTDLNKGVTGCKIDNEKTKKLLAFEFTPFHKTIHDTVYQILHKEGRV
modifications: Protein translated from synthetic DNA
As for B2, in data set [1], the Kcat was determined as 15.85 ± 0.49 s⁻¹, the Km turned out to be 980 ± 80 µM and the Vmax is 23.77 ± 0.90 µM/min/mg. In addition, in data set [2], the ee % is 42.5 (R) %.

B3: E214Q: glutamine for glutamate at position 214 of the alcohol dehydrogenase of SEQ ID No. 2 (protein)
chain: MSVLISGASGYIAKHIVRVLLEQNYKVIGTVRSQDKADKLLKQYNNPNLSYEIVPEIANLDAFDDIFKKHGKEIKYVIHAASPVNFGAKDLEKDLVIPAINGTKNMFEAIKKYAPDTVERVVMTASYASIMTPHRQNDPTLTLDEETWNPVTEENAYENVFTAYCASKTFAEKEAWKFVKENSDAVKFKLTTIHPSFVFGPQNFDEDVTKKLNQTCEIINGLLHAPFDTKVEKTHFSQFIDVRDVAKTHVLGFQKDELINQRLLLCNGAFSQQDIVNVFNEDFPELKGQFPPEDKDTDLNKGVTGCKIDNEKTKKLLAFEFTPFHKTIHDTVYQILHKEGRV
modifications: Protein translated from synthetic DNA
As to B3, in data set [1], the Kcat was 16.26 ± 1.33 s⁻¹, the Km was 1300 ± 200 µM and the Vmax stood at 24.4 ± 0.20 µM/min/mg. In data set [2], the ee % is given as 58.5 (R) %.

B4: E214N: asparagine for glutamate at position 214 of the alcohol dehydrogenase of SEQ ID No. 2 (protein)
chain: MSVLISGASGYIAKHIVRVLLEQNYKVIGTVRSQDKADKLLKQYNNPNLSYEIVPEIANLDAFDDIFKKHGKEIKYVIHAASPVNFGAKDLEKDLVIPAINGTKNMFEAIKKYAPDTVERVVMTASYASIMTPHRQNDPTLTLDEETWNPVTEENAYENVFTAYCASKTFAEKEAWKFVKENSDAVKFKLTTIHPSFVFGPQNFDEDVTKKLNNTCEIINGLLHAPFDTKVEKTHFSQFIDVRDVAKTHVLGFQKDELINQRLLLCNGAFSQQDIVNVFNEDFPELKGQFPPEDKDTDLNKGVTGCKIDNEKTKKLLAFEFTPFHKTIHDTVYQILHKEGRV
modifications: Protein translated from synthetic DNA
For the molecule B4, in data set [1], the Kcat was 22.90 ± 1.12 s⁻¹, the Km is 420 ± 60 µM and the Vmax is 34.35 ± 2.05 µM/min/mg. In data set [2], the ee % is on record as 58.1 (R) %.

B5: E214I: isoleucine for glutamate at position 214 of the alcohol dehydrogenase of SEQ ID No. 2 (protein)
chain: MSVLISGASGYIAKHIVRVLLEQNYKVIGTVRSQDKADKLLKQYNNPNLSYEIVPEIANLDAFDDIFKKHGKEIKYVIHAASPVNFGAKDLEKDLVIPAINGTKNMFEAIKKYAPDTVERVVMTASYASIMTPHRQNDPTLTLDEETWNPVTEENAYENVFTAYCASKTFAEKEAWKFVKENSDAVKFKLTTIHPSFVFGPQNFDEDVTKKLNITCEIINGLLHAPFDTKVEKTHFSQFIDVRDVAKTHVLGFQKDELINQRLLLCNGAFSQQDIVNVFNEDFPELKGQFPPEDKDTDLNKGVTGCKIDNEKTKKLLAFEFTPFHKTIHDTVYQILHKEGRV
modifications: Protein translated from synthetic DNA
For B5, in data set [1], the Kcat came to 8.77 ± 0.23 s⁻¹, the Km worked out at 410 ± 40 µM and the maximum rate (Vmax) worked out at 13.15 ± 0.43 µM/min/mg. Moreover, the ee % in data set [2] is given as 93.0 (R) %.

For the origin of these results see patent publication US11078465B2, “Alcohol dehydrogenase mutant and application thereof in synthesis of diaryl chiral alcohols” (Jiangnan University, priority 2018, dated 2021).
